Laboratory results published in publication PMC5591645.

Biological target: phosphorylated human eIF2α (amino acids 1–185) solubility-enhanced mutant (P-eIF2α) (human) (UniProt P05198)
Assay: MST

Row | fold higher affinity than the isolated PP1^D95A [fold] | Kd [nM] | Substance
1 | 3 |  | R15B–PP1^D95A (from UniProt Q5SWA1;P62136) (complex)
2 |  | 650 | PP1^D95A (human PP1α amino acids 7–330, D95A) (from UniProt P62136 7-330) (enzyme)
3 | 5.4 |  | R15A–PP1^D95A (from UniProt O75807;P62136) (complex)
